For the series, the system named is human recombinant carboxylesterases. Description: In vitro metabolic stability in human recombinant carboxylesterases (rate of metabolite formation, LC-MS/MS). The following applies: 1 μM test compound, 0.1 mg/mL human recombinant carboxylesterase mixture, pH=6.0, 37° C., triplicate. The format is in vitro ADME. Here is the method: In Vitro Metabolic Stability in Human Recombinant Carboxylesterases
Human recombinant carboxylesterases were purchased from a commercial vendor (BD Gentest™, Bedford, Mass.). All metabolic stability experiments were performed in triplicate in 96-well plate format. The final incubation mixture contained 1 μM test compound and 0.1 mg/mL human recombinant carboxylesterase mixture in a final volume of 0.5 mL 0.1M potassium phosphate buffer (pH=6.0). […] Following a pre-incubation at 37° C., test article was added to initiate the reaction. At designated time points (typically 120 minutes to capture the linear range of metabolite formation), 0.05 mL aliquots were removed from the incubation mixtures using a clean pipet tip and immediately placed in organic solvent to stop any esterase activity.
The samples were analyzed by liquid chromatography with mass spectrometry (LC-MS/MS) detection to determine the metabolite concentrations resulting from the metabolism of the hybrid compounds. Internal standards were used to compensate for variability from sample processing, chromatographic elution, mass spectrometer response and ion suppression by matrix components.

The structures appear in SMILES notation.

Data on seven molecules can be found in patent US9402913B2, “Cyclosporine A steroid conjugates” (Allergan, Inc., priority 2013, dated 2016).

`C/C=C/C[C@@H](C)C(OC(=O)OCOC(=O)CCC(=O)OCCOCCOCCOC(=O)CCC(=O)OCC(=O)[C@@]1(O)CCC2C3CCC4=CC(=O)C=C[C@]4(C)C3[C@@H](O)C[C@@]21C)C1C(=O)NC(CC)C(=O)N(C)CC(=O)N(C)[C@@H](CC(C)C)C(=O)NC(C(C)C)C(=O)N(C)C(CC(C)C)C(=O)NC(C)C(=O)NC(C)C(=O)N(C)C(CC(C)C)C(=O)N(C)C(CC(C)C)C(=O)N(C)C(C(C)C)C(=O)N1C` (relative stereo) [Compound 5]: the “Rate of formation Metabolite 2 (Cyclosporine A)” value (“Rate … (Cyclosporine A)” below) worked out at 35.6 ± 0.63 nM/min/mg and the “Rate of formation Metabolite 1 (Prednisolone)” value (shortened to “Rate … (Prednisolone)”) is listed as 84.4 ± 7.52 nM/min/mg.

As for `C/C=C/C[C@@H](C)[C@@H](OC(=O)OCOC(=O)CCC(=O)OCCOCCOCCOCCOC(=O)CCC(=O)OCC(=O)[C@@]1(O)CCC2C3CCC4=CC(=O)C=C[C@]4(C)C3[C@@H](O)C[C@@]21C)C1C(=O)NC(CC)C(=O)N(C)CC(=O)N(C)[C@@H](CC(C)C)C(=O)NC(C(C)C)C(=O)N(C)C(CC(C)C)C(=O)NC(C)C(=O)NC(C)C(=O)N(C)C(CC(C)C)C(=O)N(C)C(CC(C)C)C(=O)N(C)C(C(C)C)C(=O)N1C` (relative stereo) [Compound 6], the “Rate … (Cyclosporine A)” value turned out to be 34.4 ± 3.85 nM/min/mg. On to `C/C=C/C[C@@H](C)C(OC(=O)CN(C)C(=O)CNC(=O)OCOC(=O)CCC(=O)OCC(=O)[C@@]1(O)CCC2C3CCC4=CC(=O)C=C[C@]4(C)C3[C@@H](O)C[C@@]21C)C1C(=O)NC(CC)C(=O)N(C)CC(=O)N(C)[C@@H](CC(C)C)C(=O)NC(C(C)C)C(=O)N(C)C(CC(C)C)C(=O)NC(C)C(=O)N[C@@H](C)C(=O)N(C)[C@@H](CC(C)C)C(=O)N(C)C(CC(C)C)C(=O)N(C)C(C(C)C)C(=O)N1C` (relative stereo) [Compound 7], for which the “Rate … (Cyclosporine A)” value came to 1.31 ± 0.18 nM/min/mg and the “Rate … (Prednisolone)” value was determined as 4.26 ± 1.31 nM/min/mg. Take `C/C=C/C[C@@H](C)[C@@H](OC(=O)OCOC(=O)CCC(=O)OCCOCCOCCOCCOC(=O)CCC(=O)OCC(=O)[C@@]1(O)[C@H](C)CC2C3CCC4=CC(=O)C=C[C@]4(C)[C@@]3(F)[C@@H](O)C[C@@]21C)C1C(=O)NC(CC)C(=O)N(C)CC(=O)N(C)[C@@H](CC(C)C)C(=O)NC(C(C)C)C(=O)N(C)C(CC(C)C)C(=O)NC(C)C(=O)NC(C)C(=O)N(C)C(CC(C)C)C(=O)N(C)C(CC(C)C)C(=O)N(C)C(C(C)C)C(=O)N1C` (relative stereo) [Compound 20]: the “Rate … (Cyclosporine A)” value came to 13.9 ± 1.11 nM/min/mg and the “Rate of formation Metabolite 1 (Dexamethasone)” value was 12.0 ± 0.88 nM/min/mg. Take `C/C=C/C[C@@H](C)[C@@H](OC(=O)OCOC(=O)CCC(=O)OCCOCCOC(=O)CCC(=O)OCC(=O)[C@@]1(O)CCC2C3CCC4=CC(=O)C=C[C@]4(C)C3[C@@H](O)C[C@@]21C)C1C(=O)NC(CC)C(=O)N(C)CC(=O)N(C)[C@@H](CC(C)C)C(=O)NC(C(C)C)C(=O)N(C)C(CC(C)C)C(=O)NC(C)C(=O)NC(C)C(=O)N(C)C(CC(C)C)C(=O)N(C)C(CC(C)C)C(=O)N(C)C(C(C)C)C(=O)N1C` (relative stereo) [Compound 21]: the “Rate … (Cyclosporine A)” value is 21.6 ± 0.03 nM/min/mg. For the molecule `C/C=C/C[C@@H](C)[C@@H](OC(=O)OCOC(=O)CCC(=O)OCCOCCOCCOCCOCCOC(=O)CCC(=O)OCC(=O)[C@@]1(O)CCC2C3CCC4=CC(=O)C=C[C@]4(C)C3[C@@H](O)C[C@@]21C)C1C(=O)NC(CC)C(=O)N(C)CC(=O)N(C)[C@@H](CC(C)C)C(=O)NC(C(C)C)C(=O)N(C)C(CC(C)C)C(=O)NC(C)C(=O)NC(C)C(=O)N(C)C(CC(C)C)C(=O)N(C)C(CC(C)C)C(=O)N(C)C(C(C)C)C(=O)N1C` (relative stereo) [Compound 22], the “Rate … (Cyclosporine A)” value came to 46.5 ± 3.16 nM/min/mg and the “Rate … (Prednisolone)” value is listed as 38.4 ± 3.32 nM/min/mg. `C/C=C/C[C@@H](C)[C@@H](OC(=O)OCOC(=O)CCC(=O)OCCOCCOCCOC(=O)CCC(=O)OCC(=O)[C@@]1(O)[C@H](C)CC2C3CCC4=CC(=O)C=C[C@]4(C)[C@@]3(F)[C@@H](O)C[C@@]21C)C1C(=O)NC(CC)C(=O)N(C)CC(=O)N(C)[C@@H](CC(C)C)C(=O)NC(C(C)C)C(=O)N(C)C(CC(C)C)C(=O)NC(C)C(=O)NC(C)C(=O)N(C)C(CC(C)C)C(=O)N(C)C(CC(C)C)C(=O)N(C)C(C(C)C)C(=O)N1C` (relative stereo) [Compound 32]: the “Rate … (Cyclosporine A)” value came to 13.4 ± 1.31 nM/min/mg and the “Rate of formation Metabolite 1 (Dexamethasone)” value amounted to 20.4 ± 3.18 nM/min/mg.
